B1: PTPN9 (parent)
chain: IDFLRVVRNQQSLAVSNMGARSKG

Variants of: B1
Test: protein stability index of a GFP-peptide fusion (GPS, HEK-293T) (PSI 1-6); higher = more stable
Conditions: c terminus: a fixed tail appended
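Also: lentivirally expressed fusions sorted by FACS into six bins by GFP to DsRed ratio, PSI derived from sequencing read proportions per bin multiplied by bin number.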

In order of rising protein stability index:
1. IDFLRVVRNQQSLAVWNMGARSKG [S16W]  1.46
2. IDFLRVVRNQQSLAVSMMGARSKG [N17M]  1.65
3. IDFLRVVRNQQWLAVSNMGARSKG [S12W]  1.69
4. IDFLRVVRNQQSLAVINMGARSKG [S16I]  1.74
5. IDFLRVVRNQQSLLVSNMGARSKG [A14L]  1.76
6. IDFLRVVRNQQYLAVSNMGARSKG [S12Y]  1.8
7. IDFLRVVRNQQSLIVSNMGARSKG [A14I]  1.8
8. IDFLRVVRNQQSLAVMNMGARSKG [S16M]  1.83
9. IDFLRVVRNQQSLAVLNMGARSKG [S16L]  1.89
10. IDFLRVVRNQQSLAVVNMGARSKG [S16V]  1.9
11. IDFLRVVRNQQSLEVSNMGARSKG [A14E]  1.95
12. IDFLRVVRNQQSLAISNMGARSKG [V15I]  1.97
13. IDFLRVVRNQQSLAVCNMGARSKG [S16C]  1.99
14. IDFLRVVRNQQSLCVSNMGARSKG [A14C]  2.01
15. IDFLRVVRNQQSLYVSNMGARSKG [A14Y]  2.04
16. IDFLRVVRNQQSLAVSIMGARSKG [N17I]  2.09
17. IDFLRVVRNQQSLQVSNMGARSKG [A14Q]  2.09
18. IDFLRVVRNQQSLAVSCMGARSKG [N17C]  2.1
19. IDFLRVVRNQQSLAVSFMGARSKG [N17F]  2.12
20. IDFLRVVRNQQSLKVSNMGARSKG [A14K]  2.13
21. IDFLRVVRNQQSLRVSNMGARSKG [A14R]  2.13
22. IDFLRVVRNQQSCAVSNMGARSKG [L13C]  2.14
23. IDFLRVVRNQQSLAYSNMGARSKG [V15Y]  2.15
24. IDFLRVVRNQQSLAVHNMGARSKG [S16H]  2.15
25. IDFLRVVRNQQTLAVSNMGARSKG [S12T]  2.15
26. IDFLRVVRNQQSLDVSNMGARSKG [A14D]  2.17
27. IDFLRVVRNQQSLAFSNMGARSKG [V15F]  2.18
28. IDFLRVVRNQQSLAVTNMGARSKG [S16T]  2.2
29. IDFLRVVRNQQSLAVSGMGARSKG [N17G]  2.21
30. IDFLRVVRNQQSLAVSLMGARSKG [N17L]  2.22
31. IDFLRVVRNQQSLVVSNMGARSKG [A14V]  2.22
32. IDFLRVVRNQQSLFVSNMGARSKG [A14F]  2.23
33. IDFLRVVRNQQSLSVSNMGARSKG [A14S]  2.23
34. IDFLRVVRNQQSLAVSKMGARSKG [N17K]  2.24
35. IDFLRVVRNQQSLAWSNMGARSKG [V15W]  2.25
36. IDFLRVVRNQQSLAVSPMGARSKG [N17P]  2.27
37. IDFLRVVRNQQSLACSNMGARSKG [V15C]  2.28
38. IDFLRVVRNQQSLGVSNMGARSKG [A14G]  2.3
39. IDFLRVVRNQQSLARSNMGARSKG [V15R]  2.31
40. IDFLRVVRNQQSLAVFNMGARSKG [S16F]  2.31
41. IDFLRVVRNQQSIAVSNMGARSKG [L13I]  2.31
42. IDFLRVVRNQQVLAVSNMGARSKG [S12V]  2.34
43. IDFLRVVRNQQSRAVSNMGARSKG [L13R]  2.34
44. IDFLRVVRNQQSFAVSNMGARSKG [L13F]  2.34
45. IDFLRVVRNQQSLAVGNMGARSKG [S16G]  2.35
46. IDFLRVVRNQQSLAPSNMGARSKG [V15P]  2.36
47. IDFLRVVRNQQSLAVYNMGARSKG [S16Y]  2.38
48. IDFLRVVRNQQSLWVSNMGARSKG [A14W]  2.39
49. IDFLRVVRNQQSLNVSNMGARSKG [A14N]  2.4
50. IDFLRVVRNQQSLALSNMGARSKG [V15L]  2.41
51. IDFLRVVRNQQSLAVSQMGARSKG [N17Q]  2.42
52. IDFLRVVRNQQSHAVSNMGARSKG [L13H]  2.45
53. IDFLRVVRNQQSLAVDNMGARSKG [S16D]  2.48
54. IDFLRVVRNQQSLHVSNMGARSKG [A14H]  2.48
55. IDFLRVVRNQQSLASSNMGARSKG [V15S]  2.49
56. IDFLRVVRNQQSMAVSNMGARSKG [L13M]  2.51
57. IDFLRVVRNQQSLADSNMGARSKG [V15D]  2.52
58. IDFLRVVRNQQSLAVNNMGARSKG [S16N]  2.52
59. IDFLRVVRNQQRLAVSNMGARSKG [S12R]  2.52
60. IDFLRVVRNQQSLAVPNMGARSKG [S16P]  2.54
61. IDFLRVVRNQQSLAHSNMGARSKG [V15H]  2.56
62. IDFLRVVRNQQSYAVSNMGARSKG [L13Y]  2.57
63. IDFLRVVRNQQSTAVSNMGARSKG [L13T]  2.57
64. IDFLRVVRNQQSLAVKNMGARSKG [S16K]  2.59
65. IDFLRVVRNQQSLAMSNMGARSKG [V15M]  2.61
66. IDFLRVVRNQQSLAKSNMGARSKG [V15K]  2.62
67. IDFLRVVRNQQSLAVSDMGARSKG [N17D]  2.63
68. IDFLRVVRNQQSLAVENMGARSKG [S16E]  2.64
69. IDFLRVVRNQQSLTVSNMGARSKG [A14T]  2.64
70. IDFLRVVRNQQSLMVSNMGARSKG [A14M]  2.66
71. IDFLRVVRNQQSLAESNMGARSKG [V15E]  2.69
72. IDFLRVVRNQQSLATSNMGARSKG [V15T]  2.69
73. IDFLRVVRNQQSLAVSAMGARSKG [N17A]  2.7
74. IDFLRVVRNQQSLPVSNMGARSKG [A14P]  2.7
75. IDFLRVVRNQQSSAVSNMGARSKG [L13S]  2.7
76. IDFLRVVRNQQSWAVSNMGARSKG [L13W]  2.72
77. IDFLRVVRNQQSAAVSNMGARSKG [L13A]  2.73
78. IDFLRVVRNQQSKAVSNMGARSKG [L13K]  2.75
79. IDFLRVVRNQQSLAVQNMGARSKG [S16Q]  2.78
80. IDFLRVVRNQQSLAVRNMGARSKG [S16R]  2.78
81. IDFLRVVRNQQSLAQSNMGARSKG [V15Q]  2.79
82. IDFLRVVRNQQSLAASNMGARSKG [V15A]  2.82
83. IDFLRVVRNQQSLAGSNMGARSKG [V15G]  2.83
84. IDFLRVVRNQQSVAVSNMGARSKG [L13V]  2.85
85. IDFLRVVRNQQSLANSNMGARSKG [V15N]  2.86
86. IDFLRVVRNQQSLAVSHMGARSKG [N17H]  2.9
87. IDFLRVVRNQQSPAVSNMGARSKG [L13P]  2.96
88. IDFLRVVRNQQSLAVSEMGARSKG [N17E]  3.08
89. IDFLRVVRNQQSDAVSNMGARSKG [L13D]  3.08
90. IDFLRVVRNQQSNAVSNMGARSKG [L13N]  3.2
91. IDFLRVVRNQQSGAVSNMGARSKG [L13G]  3.24
92. IDFLRVVRNQQSLAVANMGARSKG [S16A]  3.26
93. IDFLRVVRNQQSQAVSNMGARSKG [L13Q]  3.3
94. IDFLRVVRNQQSEAVSNMGARSKG [L13E]  3.58

Reference: the supplement of paper PMC10567573
